According to paper PMC5424802 (Intrinsically Disordered Proteins, 2013):

Target: T1, Stabilin CTD (C-terminal domain of stabilin-2, truncated intracellular region) (human, UniProt Q8WWQ8 2501-2551)
T1 sequence: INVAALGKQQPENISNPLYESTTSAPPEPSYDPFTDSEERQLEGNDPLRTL
Assay: ITC

MSDKPDMAEIEKFDKSKLKKTETQEKNPLPSKETIEQEKQAGES (natural protein, not fully specified) [Thymosin β4] gave a dH of -1.75 kcal/mol.
